Here are results for two molecules from US20060083713A1.

For test [1], the target named is LP-48-FLAG fusion polypeptide (human LP-48 / IL-17C, mature, with the FLAG epitope fused to the native C-terminus) (human) (UniProt Q9P0M4). The experiment in a line: HUVEC incubated with 5 ug/ml LP-48, then control antibodies and 125I-protein A (radioimmunoassay).
Test [2] deals with cell surface of HUVEC (human umbilical vein endothelial cells); LP-48 binding partner not identified (human). The test is described as follows: HUVEC incubated with 5 ug/ml LP-48; bound LP-48 detected with anti-LP-48 antibodies and 125I-protein A (radioimmunoassay).

In turn, “control antibodies to an unrelated protein (antibody)” returned a 125I-Protein A Bound (CPM) in test [1] of 317 CPM.

B1: LP-48-FLAG fusion polypeptide (human LP-48 / IL-17C, mature, with the FLAG epitope fused to the native C-terminus) (ligand)
chain: HHDPSLRGHPHSHGTPHCYSAEELPLGQAPPHLLARGAKWGQALPVALVSSLEAASHRGRHERPSATTQCPVLRPEEVLEADTHQRSISPWRYRVDTDEDRYPQKLAFAECLCRGCIDARTGRETAALNSVRLLQSLLVLRRRPCSRDGSGLPTPGAFAFHTEFIHVPVGCTCVLPRSVDYKDDDDK
In the case of B1, in test [2], the 125I-Protein A Bound (CPM) stood at 5630 CPM.
